The values that follow come from patent US20200087373A1 (UNIVERSITY OF COPENHAGEN, published 2020).

Assay [1] has as its target T1, human GIP receptor (human, UniProt P48546 22-466).
T1 construct: whole, on cells; also called hGIPR
T1 sequence (looked up): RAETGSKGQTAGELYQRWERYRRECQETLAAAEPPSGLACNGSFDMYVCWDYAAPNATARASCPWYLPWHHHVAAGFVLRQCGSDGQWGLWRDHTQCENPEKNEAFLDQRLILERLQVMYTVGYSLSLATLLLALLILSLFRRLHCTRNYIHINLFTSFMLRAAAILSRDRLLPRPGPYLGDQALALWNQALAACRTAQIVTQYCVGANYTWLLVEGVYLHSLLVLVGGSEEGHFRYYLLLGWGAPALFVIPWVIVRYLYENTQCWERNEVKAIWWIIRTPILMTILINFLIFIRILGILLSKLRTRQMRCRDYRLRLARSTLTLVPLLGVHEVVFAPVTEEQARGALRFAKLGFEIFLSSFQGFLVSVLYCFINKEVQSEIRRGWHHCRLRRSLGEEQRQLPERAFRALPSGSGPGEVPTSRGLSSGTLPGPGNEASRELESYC
As to the kind of experiment: 125I-hGIP competition binding, COS-7/hGIPR, 0.1% casein.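 Further: nonspecific binding defined as radioligand binding measured on untransfected cells.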
Experimental: (§1) After incubation, the cells were washed twice in ice-cold binding buffer (+/−2% HSA) and lysed using 200 mM NaOH with 1% SDS for 30 min. Nonspecific binding was determined as the binding of radioactive ligand to untransfected cells.

In assay [2] the target is T1, human GIP receptor. The assay can be described thus: 125I-hGIP competition binding, COS-7/hGIPR, 2% HSA.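 Further: nonspecific binding defined as radioligand binding to untransfected cells.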
Experimental: as §1
The target in assay [3] is T1, human GIP receptor. As to the kind of experiment: IC50 with 2% HSA over IC50 with 0.1% casein, 125I-hGIP competition, COS-7/hGIPR.
Experimental: as §1
Assay [4] addresses T1, human GIP receptor. The assay can be described thus: 125I-hGIP competition binding, COS-7 cells expressing hGIPR.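 Further: nonspecific binding taken as radioligand bound by untransfected cells, binding buffer with or without 2% HSA.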
Experimental: as §1

Ends that are not written are not given here. * marks the point of attachment. C18 diacid = O=C(O)CCCCCCCCCCCCCCCCC(=O)*; C16 diacid = O=C(O)CCCCCCCCCCCCCCC(=O)*; C14 diacid = O=C(O)CCCCCCCCCCCCC(=O)*; Stearoyl = CCCCCCCCCCCCCCCCCC(=O)*; Myristoyl = CCCCCCCCCCCCCC(=O)*; Lauroyl = CCCCCCCCCCCC(=O)*

In the case of EGTFISDYSIAMDK(Stearoyl)IHQQDFVNWLLAQK-NH2 [AT114 [hGIP(3-30)NH2-C18/16]], the IC50 in assay [1] came out at 489 nM; in assay [2], 5460 nM; in assay [4], 622 nM. Moreover, the logIC50 in assay [1] is -6.3 log M; in assay [2] it was -5.3 log M. The “Fold change HSA (2%)/Casein (0.1%)” value in assay [3] stood at 11.2 fold. Also, in assay [4], the “log IC50” value was -6.2 log M.

B1: AT139 [hGIP(5-30)NH2-C14diacid/16] (peptide)
peptide: TFISDYSIAMDK(C14 diacid)IHQQDFVNWLLAQK-NH2
modifications: N-terminus assumed
SMILES: CC[C@H](C)[C@H](NC(=O)[C@H](CO)NC(=O)[C@H](Cc1ccc(O)cc1)NC(=O)[C@H](CC(=O)O)NC(=O)[C@H](CO)NC(=O)[C@@H](NC(=O)[C@H](Cc1ccccc1)NC(=O)[C@@H](N)[C@@H](C)O)[C@@H](C)CC)C(=O)N[C@@H](C)C(=O)N[C@@H](CCSC)C(=O)N[C@@H](CC(=O)O)C(=O)N[C@@H](CCCCNC(=O)CCCCCCCCCCCCC(=O)O)C(=O)N[C@H](C(=O)N[C@@H](Cc1c[nH]cn1)C(=O)N[C@@H](CCC(N)=O)C(=O)N[C@@H](CCC(N)=O)C(=O)N[C@@H](CC(=O)O)C(=O)N[C@@H](Cc1ccccc1)C(=O)N[C@H](C(=O)N[C@@H](CC(N)=O)C(=O)N[C@@H](Cc1c[nH]c2ccccc12)C(=O)N[C@@H](CC(C)C)C(=O)N[C@@H](CC(C)C)C(=O)N[C@@H](C)C(=O)N[C@@H](CCC(N)=O)C(=O)N[C@@H](CCCCN)C(N)=O)C(C)C)[C@@H](C)CC
On to B1, for which the results for the IC50 in assay [1], in assay [2] and in assay [4] were 153 nM, 401 nM and 153 nM, respectively. In addition, the logIC50 in assay [1] was -6.8 log M; in assay [2], -6.4 log M. Further, in assay [3], the “Fold change HSA (2%)/Casein (0.1%)” value was found to be 2.6 fold. In addition, the “log IC50” value in assay [4] was -6.8 log M.

B2: AT137 [hGIP(5-30)NH2-C16diacid/5] (peptide)
peptide: {C16 diacid}-TFISDYSIAMDKIHQQDFVNWLLAQK-NH2
SMILES: CC[C@H](C)[C@H](NC(=O)[C@H](CO)NC(=O)[C@H](Cc1ccc(O)cc1)NC(=O)[C@H](CC(=O)O)NC(=O)[C@H](CO)NC(=O)[C@@H](NC(=O)[C@H](Cc1ccccc1)NC(=O)[C@@H](NC(=O)CCCCCCCCCCCCCCC(=O)O)[C@@H](C)O)[C@@H](C)CC)C(=O)N[C@@H](C)C(=O)N[C@@H](CCSC)C(=O)N[C@@H](CC(=O)O)C(=O)N[C@@H](CCCCN)C(=O)N[C@H](C(=O)N[C@@H](Cc1c[nH]cn1)C(=O)N[C@@H](CCC(N)=O)C(=O)N[C@@H](CCC(N)=O)C(=O)N[C@@H](CC(=O)O)C(=O)N[C@@H](Cc1ccccc1)C(=O)N[C@H](C(=O)N[C@@H](CC(N)=O)C(=O)N[C@@H](Cc1c[nH]c2ccccc12)C(=O)N[C@@H](CC(C)C)C(=O)N[C@@H](CC(C)C)C(=O)N[C@@H](C)C(=O)N[C@@H](CCC(N)=O)C(=O)N[C@@H](CCCCN)C(N)=O)C(C)C)[C@@H](C)CC
For the molecule B2, in assay [1], the IC50 is 286 nM and the logIC50 is -6.5 log M. Also, in assay [2], the IC50 stood at 555 nM and the logIC50 was -6.3 log M. For the same molecule, the “Fold change HSA (2%)/Casein (0.1%)” value in assay [3] turned out to be 1.9 fold. For the same molecule, in assay [4], the IC50 is 286 nM and the “log IC50” value is -6.5 log M.
For EGTFISDYSIAMDK(Myristoyl)IHQQDFVNWLLAQK-NH2 [AT111 [hGIP(3-30)NH2-C14/16]], the IC50 in assay [1] was determined as 407 nM; in assay [2], 2090 nM; in assay [4] it was 261 nM. Besides, the logIC50 in assay [1] was -6.4 log M; in assay [2] it was -5.7 log M. Moreover, the “Fold change HSA (2%)/Casein (0.1%)” value in assay [3] was found to be 5.1 fold. Moreover, the “log IC50” value in assay [4] was -6.6 log M.

B3: AT116 [hGIP(3-30)NH2-C12/18] (peptide)
peptide: EGTFISDYSIAMDKIK(Lauroyl)QQDFVNWLLAQK-NH2
modifications: N-terminus assumed
SMILES: CCCCCCCCCCCC(=O)NCCCC[C@H](NC(=O)[C@@H](NC(=O)[C@H](CCCCN)NC(=O)[C@H](CC(=O)O)NC(=O)[C@H](CCSC)NC(=O)[C@H](C)NC(=O)[C@@H](NC(=O)[C@H](CO)NC(=O)[C@H](Cc1ccc(O)cc1)NC(=O)[C@H](CC(=O)O)NC(=O)[C@H](CO)NC(=O)[C@@H](NC(=O)[C@H](Cc1ccccc1)NC(=O)[C@@H](NC(=O)CNC(=O)[C@@H](N)CCC(=O)O)[C@@H](C)O)[C@@H](C)CC)[C@@H](C)CC)[C@@H](C)CC)C(=O)N[C@@H](CCC(N)=O)C(=O)N[C@@H](CCC(N)=O)C(=O)N[C@@H](CC(=O)O)C(=O)N[C@@H](Cc1ccccc1)C(=O)N[C@H](C(=O)N[C@@H](CC(N)=O)C(=O)N[C@@H](Cc1c[nH]c2ccccc12)C(=O)N[C@@H](CC(C)C)C(=O)N[C@@H](CC(C)C)C(=O)N[C@@H](C)C(=O)N[C@@H](CCC(N)=O)C(=O)N[C@@H](CCCCN)C(N)=O)C(C)C
In assay [1], B3 had an IC50 of 62 nM and a logIC50 of -7.2 log M. In assay [2], this molecule returned an IC50 of 321 nM and a logIC50 of -6.5 log M. Further, in assay [3], the “Fold change HSA (2%)/Casein (0.1%)” value is 5.2 fold. Also, in assay [4], the IC50 is 71.2 nM and the “log IC50” value is -7.1 log M.

B4: AT141 [hGIP(5-30)NH2-C18diacid/16] (peptide)
peptide: TFISDYSIAMDK(C18 diacid)IHQQDFVNWLLAQK-NH2
modifications: N-terminus assumed
SMILES: CC[C@H](C)[C@H](NC(=O)[C@H](CO)NC(=O)[C@H](Cc1ccc(O)cc1)NC(=O)[C@H](CC(=O)O)NC(=O)[C@H](CO)NC(=O)[C@@H](NC(=O)[C@H](Cc1ccccc1)NC(=O)[C@@H](N)[C@@H](C)O)[C@@H](C)CC)C(=O)N[C@@H](C)C(=O)N[C@@H](CCSC)C(=O)N[C@@H](CC(=O)O)C(=O)N[C@@H](CCCCNC(=O)CCCCCCCCCCCCCCCCC(=O)O)C(=O)N[C@H](C(=O)N[C@@H](Cc1c[nH]cn1)C(=O)N[C@@H](CCC(N)=O)C(=O)N[C@@H](CCC(N)=O)C(=O)N[C@@H](CC(=O)O)C(=O)N[C@@H](Cc1ccccc1)C(=O)N[C@H](C(=O)N[C@@H](CC(N)=O)C(=O)N[C@@H](Cc1c[nH]c2ccccc12)C(=O)N[C@@H](CC(C)C)C(=O)N[C@@H](CC(C)C)C(=O)N[C@@H](C)C(=O)N[C@@H](CCC(N)=O)C(=O)N[C@@H](CCCCN)C(N)=O)C(C)C)[C@@H](C)CC
For B4, in assay [1], the IC50 came out at 1900 nM and the logIC50 is -5.7 log M. Also, in assay [2], the IC50 amounted to 12400 nM and the logIC50 was -4.9 log M. In addition, in assay [3], the “Fold change HSA (2%)/Casein (0.1%)” value came out at 6.5 fold. In assay [4], the IC50 came out at 1900 nM and the “log IC50” value was -5.7 log M.

B5: AT140 [hGIP(5-30)NH2-C16diacid/16] (peptide)
peptide: TFISDYSIAMDK(C16 diacid)IHQQDFVNWLLAQK-NH2
modifications: N-terminus assumed
SMILES: CC[C@H](C)[C@H](NC(=O)[C@H](CO)NC(=O)[C@H](Cc1ccc(O)cc1)NC(=O)[C@H](CC(=O)O)NC(=O)[C@H](CO)NC(=O)[C@@H](NC(=O)[C@H](Cc1ccccc1)NC(=O)[C@@H](N)[C@@H](C)O)[C@@H](C)CC)C(=O)N[C@@H](C)C(=O)N[C@@H](CCSC)C(=O)N[C@@H](CC(=O)O)C(=O)N[C@@H](CCCCNC(=O)CCCCCCCCCCCCCCC(=O)O)C(=O)N[C@H](C(=O)N[C@@H](Cc1c[nH]cn1)C(=O)N[C@@H](CCC(N)=O)C(=O)N[C@@H](CCC(N)=O)C(=O)N[C@@H](CC(=O)O)C(=O)N[C@@H](Cc1ccccc1)C(=O)N[C@H](C(=O)N[C@@H](CC(N)=O)C(=O)N[C@@H](Cc1c[nH]c2ccccc12)C(=O)N[C@@H](CC(C)C)C(=O)N[C@@H](CC(C)C)C(=O)N[C@@H](C)C(=O)N[C@@H](CCC(N)=O)C(=O)N[C@@H](CCCCN)C(N)=O)C(C)C)[C@@H](C)CC
In assay [1], B5 displayed an IC50 of 2160 nM and a logIC50 of -5.7 log M. In assay [2], the IC50 came out at 3280 nM and the logIC50 was -5.5 log M. Moreover, in assay [3], the “Fold change HSA (2%)/Casein (0.1%)” value came out at 1.5 fold. Further, in assay [4], the 50% inhibitory concentration (IC50) turned out to be 2160 nM and the “log IC50” value is -5.7 log M.

B6: AT138 [hGIP(5-30)NH2-C18diacid/5] (peptide)
peptide: {C18 diacid}-TFISDYSIAMDKIHQQDFVNWLLAQK-NH2
SMILES: CC[C@H](C)[C@H](NC(=O)[C@H](CO)NC(=O)[C@H](Cc1ccc(O)cc1)NC(=O)[C@H](CC(=O)O)NC(=O)[C@H](CO)NC(=O)[C@@H](NC(=O)[C@H](Cc1ccccc1)NC(=O)[C@@H](NC(=O)CCCCCCCCCCCCCCCCC(=O)O)[C@@H](C)O)[C@@H](C)CC)C(=O)N[C@@H](C)C(=O)N[C@@H](CCSC)C(=O)N[C@@H](CC(=O)O)C(=O)N[C@@H](CCCCN)C(=O)N[C@H](C(=O)N[C@@H](Cc1c[nH]cn1)C(=O)N[C@@H](CCC(N)=O)C(=O)N[C@@H](CCC(N)=O)C(=O)N[C@@H](CC(=O)O)C(=O)N[C@@H](Cc1ccccc1)C(=O)N[C@H](C(=O)N[C@@H](CC(N)=O)C(=O)N[C@@H](Cc1c[nH]c2ccccc12)C(=O)N[C@@H](CC(C)C)C(=O)N[C@@H](CC(C)C)C(=O)N[C@@H](C)C(=O)N[C@@H](CCC(N)=O)C(=O)N[C@@H](CCCCN)C(N)=O)C(C)C)[C@@H](C)CC
In assay [1], B6 registered an IC50 of 2640 nM and a logIC50 of -5.6 log M. Further, in assay [2], the IC50 is 10100 nM and the logIC50 is -5 log M. Moreover, the “Fold change HSA (2%)/Casein (0.1%)” value in assay [3] amounted to 3.8 fold. Besides, in assay [4], the IC50 stood at 2640 nM and the “log IC50” value was -5.6 log M.
